Test results as given in PMC6934829, “Multi-Factor Regulation of the Master Modulator LeuO for the Cyclic-(Phe-Pro) Signaling Pathway in Vibrio vulnificus” (Scientific Reports, 2019).

What was measured:
[1] = target: T1, ToxR-C (C-terminal periplasmic domain of ToxR) (Vibrio vulnificus, UniProt Q9RP86); test: isothermal titration calorimetry; format: binding
T1 construct: C-terminal His-tag (pET21a), expressed in E. coli BL21(DE3)

[2] = target: C-terminal periplasmic domain of ToxR (ToxR-C) (Vibrio vulnificus); test: ITC; 0.2 mM ToxR-C in the cell, 10 mM cFP or linear FP in the syringe, 2 ul injections at 2 min intervals, 25 °C, 20 mM Na2HPO4 pH 7.8, 1 mM EDTA; simple binding model

Row | Compound | Kd [1] [µM] | Kd [2] [µM] | stoichiometry N [2]
1 | O=C1N[C@@H](Cc2ccccc2)C(=O)N2CCC[C@@H]12 [cFP] | 42 |  | 
2 | cyclic-L-phenylalanine-L-proline (cFP) (peptide) |  | 42 | 1
